# Experimental data published in US20240182580A1.
# Columns and labels:
# [1] = molecular target: CD74 on human tumour cell lines (human) (UniProt P04233); assay: flow cytometry on JVM-13 (CLL) cells; Table 3 repeats Table 2; set-up: Bmax: unit not given here
# [2] = molecular target: CD74 on human tumour cell lines (human) (UniProt P04233); assay: flow cytometry on RPMI-6666 (HL) cells; Table 3 repeats Table 2
# [3] = molecular target: CD74 on human tumour cell lines (human) (UniProt P04233); assay: flow cytometry on BDCM (AML) cells, one-site specific binding fit
# [4] = molecular target: CD74 on human tumour cell lines (human) (UniProt P04233); assay: flow cytometry on ARP-1 (MM) cells, geometric MFI, one-site specific binding fit
# [5] = molecular target: CD74 on human tumour cell lines (human) (UniProt P04233); assay: flow cytometry on RPMI-6666 (HL) cells, one-site specific binding fit
# [6] = molecular target: CD74 on human tumour cell lines (human) (UniProt P04233); assay: flow cytometry on ARD (MM) cells; Table 3 repeats Table 2
# [7] = molecular target: CD74 on human tumour cell lines (human) (UniProt P04233); assay: flow cytometry on SU-DHL-6 (NHL) cells, one-site specific binding fit
# [8] = molecular target: CD74 on human tumour cell lines (human) (UniProt P04233); assay: flow cytometry on ARP-1 (MM) cells; Table 3 repeats Table 2
# [9] = molecular target: CD74 on human tumour cell lines (human) (UniProt P04233); assay: flow cytometry on ARD (MM) cells, one-site specific binding fit
# [10] = molecular target: CD74 on human tumour cell lines (human) (UniProt P04233); assay: flow cytometry on SUP-B15 (ALL) cells, geometric MFI, one-site specific binding fit
# [11] = molecular target: CD74 on human tumour cell lines (human) (UniProt P04233); assay: flow cytometry on SUP-B15 (ALL) cells, one-site specific binding fit
# [12] = molecular target: CD74 on human tumour cell lines (human) (UniProt P04233); assay: flow cytometry on SU-DHL-6 (NHL) cells, geometric MFI, one-site specific binding fit
# [13] = molecular target: CD74 on human tumour cell lines (human) (UniProt P04233); assay: flow cytometry on BDCM (AML) cells, geometric MFI, one-site specific binding fit
# [14] = molecular target: CD74 on human tumour cell lines (human) (UniProt P04233); assay: flow cytometry on JVM-13 (CLL) cells, geometric MFI, one-site specific binding fit
# [15] = molecular target: CD74 on human tumour cell lines (human) (UniProt P04233); assay: flow cytometry on RPMI-8226 (MM) cells, geometric MFI, one-site specific binding fit
# [16] = molecular target: CD74 on human tumour cell lines (human) (UniProt P04233); assay: flow cytometry on ARD (MM) cells, geometric MFI, one-site specific binding fit
# [17] = molecular target: CD74 on human tumour cell lines (human) (UniProt P04233); assay: flow cytometry on BDCM (AML) cells; Table 3 repeats Table 2
# [18] = molecular target: CD74 on human tumour cell lines (human) (UniProt P04233); assay: flow cytometry on RPMI-6666 (HL) cells, geometric MFI, one-site specific binding fit
# [19] = molecular target: CD74 on human tumour cell lines (human) (UniProt P04233); assay: flow cytometry on SU-DHL-6 (NHL) cells; Table 3 repeats Table 2
# [20] = molecular target: CD74 on human tumour cell lines (human) (UniProt P04233); assay: flow cytometry on RPMI-8226 (MM) cells; Table 3 repeats Table 2
# [21] = molecular target: CD74 on human tumour cell lines (human) (UniProt P04233); assay: flow cytometry on RPMI-8226 (MM) cells, one-site specific binding fit
# [22] = molecular target: CD74 on human tumour cell lines (human) (UniProt P04233); assay: flow cytometry on SUP-B15 (ALL) cells; Table 3 repeats Table 2; set-up: Bmax: unit not given here
# [23] = molecular target: CD74 on human tumour cell lines (human) (UniProt P04233); assay: flow cytometry on JVM-13 (CLL) cells, one-site specific binding fit
binder,measurement,setting,value
"anti-CD74 antibody without conjugation (anti-CD74 IgG of Examples 2 and 3) (antibody, V domains shown) VH: QVQLVESGGGVVQPGRSLRLSCAASGFNFSDYGMHWVRQAPGKGLEWVAVIWYDGSISYYADSVKGRFTISRDNSKNTLYLQMNSLRAEDTAVYYCARGGTVEHGAVYGTDVWGQGTTVTVSS VL: DIQMTQSPSSVSASVGDRVTITCRASQGIGSWLAWYQQKPGKAPKLLIYAADRLQSGVPSRFSGSGSGTDFTLTISSLQPEDFATYYCQQYHTYPLTFGGGTKVEIK",Bmax,[1],447
same,Kd,[1],2.5 nM
same,Bmax,[2],3880
same,Kd,[2],2.3 nM
same,Kd,[3],4.5 nM
same,Bmax,[4],341
same,Kd,[5],2.3 nM
same,Bmax,[6],190
same,Kd,[6],2.6 nM
same,Kd,[7],2 nM
same,Bmax,[8],341
same,Kd,[9],2.6 nM
same,Bmax,[10],680
same,Kd,[11],3.5 nM
same,Bmax,[12],1560
same,Bmax,[13],3060
same,Bmax,[14],447
same,Bmax,[15],119
same,Bmax,[16],190
same,Bmax,[17],3060
same,Kd,[17],4.5 nM
same,Bmax,[18],3880
same,Bmax,[19],1560
same,Kd,[19],2 nM
same,Bmax,[20],119
same,Kd,[20],3.6 nM
same,Kd,[21],3.6 nM
same,Bmax,[22],680
same,Kd,[22],3.5 nM
same,Kd,[23],2.5 nM
